Laboratory results as given in patent US5985822A, “Inhibition of glial cell proliferation with N-CAM homophilic peptides” (The Scripps Research Institute, priority 1995, dated 1999).

Tested on: dividing astrocytes in cerebral cortex, hippocampus or striatum
Test: In vivo labeling index of dividing astrocytes (BrdU with GFAP or S100) after stab lesion with infusion
Design: species or system rat
Settings: for Labeling Index (Experimental): N-CAM 250 μg/ml, 3rd Ig domain 5 mg/ml, N-CAM peptide 1 mg/ml, 3 μl infused, n=3
Protocol: Samples were injected into the brains of rats (Wistar Albino, Male, 200-250 g, Charles River, anesthetized with xylazine (12 mg/kg) and ketamine (90 mg/kg) through a 26 gauge needle. The needle point was placed at the stereotactic coordinates of either the hippocampus, cerebral cortex or striatum (Table 2). Bilateral injections of 3-4 μl were made using an Hamilton syringe. Each animal received an infusion of either the purified rat N-CAM (250 μg/ml), the third Ig domain of chicken N-CAM (5 mg/ml), or the rat N-CAM peptide KHIFSDDSSE (SEQ ID NO 2) (1 mg/ml) in PBS into one hemisphere; the other hemisphere was infused with the random peptide (SFSISDEDHK (SEQ ID NO 9), 1 mg/ml in PBS) as a control. The experimental and control sides varied between animals and choice of side had no significant effect on the results. Three μl of each protein or peptide was infused at a rate of 0.2 μl per minute after which the needle was left in place for 5 minutes and then removed. In one experiment, a group of animals received basic fibroblast growth factor (bFGF, 450 ng) in the solutions which contained either the random peptide or the purified N-CAM.
The samples were either purified N-CAM in phosphate buffered saline (PBS), N-CAM peptide KHIFSDDSSE (SEQ. ID. NO. 2) (1 mg/ml or 10 mg/ml) in PBS, or the corresponding random peptide SFSISDEDHK (SEQ ID NO 9) (1 mg/ml) (see Example 3 above). The injection rate was about 0.2 μl/min; the needle was left in place for 5 minute after the injection. Each animal received either the purified N-CAM or the N-CAM peptide injected into one side of the brain and the corresponding structure on the other side was injected with the random peptide as a control.
Three animals were examined for each treatment and brain region described. Animals were maintained for a postinjection survival time of about 70-72 hours. During that time they received five injections of bromodeoxyuridine (Brdu) dissolved in 0.007 N NaOH (120 mg/kg, intraperitoneal). Two of the three animals that had been injected in the hippocampus received Brdu approximately 18, 28, 42, 52, and 70 hours after the stereotactic surgery. All of the animals that had been injected in the cerebral cortex or the striatum and one animal injected in the hippocampus received Brdu approximately 2, 18, 28, 42, and 52 hours after the stereotactic surgery.
Animals were perfused under anesthesia with about 30 ml of ice-cold PBS followed by about 400 ml of ice-cold […] in PBS. The brains were then removed and postfixed for 2-16 hours in 4% paraformaldehyde in PBS then placed in succeeding solutions of ascending concentrations of sucrose (12%, 18%, and 24%). The brains were then sectioned on a cryostat at a thickness of 10 μm.
Non-specific binding on the sections was blocked by incubation in 8% fetal bovine serum (FBS) in PBS. Sections were then incubated in polyclonal antibody to glial fibrillary acidic protein (GFAP; 1:100 dilution, Dako) in 0.2% Triton X-100, 8% FBS/PBS for 24 - 48 hr at 4° C. The sections were processed using a biotinylated secondary antibody and the Vectastain ABC kit (Vector), and stained with a diaminobenzidine peroxidase substrate kit from Vector or Pierce. The sections were then incubated for 6 minutes in a solution of Proteinase K (Dako), rinsed and incubated in 2 N HCL for 20 minutes at 37° C. The sections were rinsed and blocked in 8% FBS/PBS and incubated in a monoclonal antibody to Brdu (1:40 dilution, Dako), 0.01% Triton X-100, 8% fetal bovine serum/PBS for 24-48 hr at 4° C. The sections were processed using a biotinlyated secondary antibody and the Vectastain ABC kit (Vector), and stained with a VIP peroxidase substrate kit from Vector giving the Brdu positive cells a red color. The sections were then rinsed in PBS and coverslipped in glycerol/PBS.
GFAP positive cells and cells positive for both GFAP and BRDU were counted under a Zeiss Axiophot light microscope. […]

B1: N-CAM: neural cell adhesion molecule purified from early postnatal rat brains by affinity chromatography, mainly polysialylated embryonic form (protein, UniProt P13596 20-858, looked up)
Neural cell adhesion molecule …: LQVDIVPSQGEISVGESKFFLCQVAGDAKDKDISWFSPNGEKLSPNQQRISVVWNDDDSSTLTIYNANIDDAGIYKCVVTAEDGTQSEATVNVKIFQKLMFKNAPTPQEFKEGEDAVIVCDVVSSLPPTIIWKHKGRDVILKKDVRFIVLSNNYLQIRGIKKTDEGTYRCEGRILARGEINFKDIQVIVNVPPTVQARQSIVNATANLGQSVTLVCDADGFPEPTMSWTKDGEPIENEEEDDEKHIFSDDSSELTIRNVDKNDEAEYVCIAENKAGEQDASIHLKVFAKPKITYVENQTAMELEEQVTLTCEASGDPIPSITWRTSTRNISSEEKASWTRPEKQETLDGHMVVRSHARVSSLTLKSIQYTDAGEYICTASNTIGQDSQSMYLEVQYAPKLQGPVAVYTWEGNQVNITCEVFAYPSATISWFRDGQLLPSSNYSNIKIYNTPSASYLEVTPDSENDFGNYNCTAVNRIGQESLEFILVQADTPSSPSIDRVEPYSSTAQVQFDEPEATGGVPILKYKAEWKSLGEEAWHSKWYDAKEANMEGIVTIMGLKPETRYAVRLAALNGKGLGEISAATEFKTQPVREPSAPKLEGQMGEDGNSIKVNLIKQDDGGSPIRHYLVKYRALASEWKPEIRLPSGSDHVMLKSLDWNAEYEVYVVAENQQGKSKAAHFVFRTSAQPTAIPANGSPTAGLSTGAIVGILIVIFVLLLVVMDITCYFLNKCGLLMCIAVNLCGKAGPGAKGKDMEEGKAAFSKDESKEPIVEVRTEEERTPNHDGGKHTEPNETTPLTEPEKGPVETKSEPQESEAKPAPTEVKTVPNEATQTKENESKA
modifications: polysialylated embryonic form
Percent Difference of labeling index, experimental vs control (cerebral cortex): -52.1 ± 4.5% | Labeling Index (Experimental) (cerebral cortex): 10.2 ± 1.5% | effect on mitogenic effects of bFGF in vivo (cortical lesion, bFGF 450 ng co-infused): able to oppose the mitogenic effects of bFGF | Percent Difference of labeling index, experimental vs control (hippocampus): -25.2 ± 1.6% | Labeling Index (Experimental) (hippocampus): 14.6 ± 2.3% | inhibition of astrocyte proliferation (infusion into cerebral cortex at 100 μg/ml): 0-10% | Percent Difference of labeling index, experimental vs control (striatum): -20.8 ± 2.1% | Labeling Index (Experimental) (striatum): 20.7 ± 0.7%
